Measured values reported in ChEMBL document CHEMBL1132365, “A multisubstrate adduct inhibitor of AICAR transformylase” (J Med Chem, 1999).

What was measured:
[1] = substrate: NC1=NC(=O)C2N=C(CN(C=O)c3ccc(C(=O)N[C@H](CCC(=O)O)C(=O)O)cc3)C=CC2N1; experiment: (§1) Substrate specificity towards AICAR formyltransferase
[2] = substrate: NC1=NC(=O)C2N[C@@H](CN(C=O)c3ccc(C(=O)N[C@H](CCC(=O)O)C(=O)O)cc3)CNC2N1; experiment: as §1

B1: Bifunctional purine biosynthesis protein ATIC (Homo sapiens), P31939 (protein)
chain: MAPGQLALFSVSDKTGLVEFARNLTALGLNLVASGGTAKALRDAGLAVRDVSELTGFPEMLGGRVKTLHPAVHAGILARNIPEDNADMARLDFNLIRVVACNLYPFVKTVASPGVTVEEAVEQIDIGGVTLLRAAAKNHARVTVVCEPEDYVVVSTEMQSSESKDTSLETRRQLALKAFTHTAQYDEAISDYFRKQYSKGVSQMPLRYGMNPHQTPAQLYTLQPKLPITVLNGAPGFINLCDALNAWQLVKELKEALGIPAAASFKHVSPAGAAVGIPLSEDEAKVCMVYDLYKTLTPISAAYARARGADRMSSFGDFVALSDVCDVPTAKIISREVSDGIIAPGYEEEALTILSKKKNGNYCVLQMDQSYKPDENEVRTLFGLHLSQKRNNGVVDKSLFSNVVTKNKDLPESALRDLIVATIAVKYTQSNSVCYAKNGQVIGIGAGQQSRIHCTRLAGDKANYWWLRHHPQVLSMKFKTGVKRAEISNAIDQYVTGTIGEDEDLIKWKALFEEVPELLTEAEKKEWVEKLTEVSISSDAFFPFRDNVDRAKRSGVAYIAAPSGSAADKVVIEACDELGIILAHTNLRLFHH
[1]
  Km: 102 µM
[2]
  Km: 68 µM
